Results on three molecules are retold here after JPH11127861A (dated 1999).

This test concerns the target HCV serine protease Cpro-2 (NS3 protein, p70) (C型肝炎ウイルス (株名 HCV-J)). Nature of the test: cell-based or functional assay.

B1: CDR-H1 (15 amino acid peptide containing CDR1 of the mAb 8D4 H chain) (peptide)
peptide: GYSFTDYVLIWVKQS
In the case of B1, the “IC50, HCVプロテアーゼ阻害活性 (組換え基質MBP-NS5A/5B-ADK)” value (“IC50, HCVプロテアーゼ阻害活性” for short) was 20.8 µM.

B2: CDR-H2 (17 amino acid peptide, CDR2 of the mAb 8D4 H chain) (peptide)
peptide: NSNPYYGRTSYNLKFKG
As for B2, the “IC50, HCVプロテアーゼ阻害活性” value was found to be 229 µM.

B3: CDR-H1-7 (7 amino acid peptide: the 5 residues of H chain CDR1 with one residue left at each end) (peptide)
peptide: TDYVLIW
Consider B3, for which the “IC50, HCVプロテアーゼ阻害活性” value is 165 µM.
